Data: patent publication US10500249B2, “Compositions and methods for preventing or treating diseases, conditions, or processes characterized by aberrant fibroblast proliferation and extracellular matrix deposition” (MOERAE MATRIX, INC., priority 2014, dated 2019)

Key:
Test in all cases: Kinase Profiling Assay
Assay type in all cases: biochemical
Conditions in all cases: 100 μM
[1] = target: Rsk1 (h) (Homo sapiens, UniProt Q15418)
Procedure, shortened: (§1)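 Duplicate wells; [radiolabeled] ATP phosphate onto cationic substrate; filter capture (negatively charged membrane); scintillation count; % of 100% activity control. Selectivity screen of MK2 peptide inhibitors, 266 human kinases.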

[2] = target: T1, NEK2 (h) (Homo sapiens, UniProt P51955)
T1 construct: purchased Millipore
T1 sequence (P51955 1-445): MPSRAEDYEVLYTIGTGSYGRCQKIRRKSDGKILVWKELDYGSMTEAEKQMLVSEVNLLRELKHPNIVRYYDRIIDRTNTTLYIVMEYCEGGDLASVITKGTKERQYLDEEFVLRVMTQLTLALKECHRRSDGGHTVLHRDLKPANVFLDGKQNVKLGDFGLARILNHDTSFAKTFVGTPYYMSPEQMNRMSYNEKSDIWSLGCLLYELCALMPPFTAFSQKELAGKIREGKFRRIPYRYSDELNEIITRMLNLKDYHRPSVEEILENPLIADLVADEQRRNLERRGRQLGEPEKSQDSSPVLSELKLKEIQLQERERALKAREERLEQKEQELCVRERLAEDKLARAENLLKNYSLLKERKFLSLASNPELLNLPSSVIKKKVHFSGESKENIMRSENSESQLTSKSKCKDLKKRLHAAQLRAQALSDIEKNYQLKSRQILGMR
Procedure, shortened: as §1

[3] = target: T2, IRAK4 (h) (Homo sapiens, UniProt Q9NWZ3)
T2 construct: purchased Millipore
T2 sequence (Q9NWZ3 1-460): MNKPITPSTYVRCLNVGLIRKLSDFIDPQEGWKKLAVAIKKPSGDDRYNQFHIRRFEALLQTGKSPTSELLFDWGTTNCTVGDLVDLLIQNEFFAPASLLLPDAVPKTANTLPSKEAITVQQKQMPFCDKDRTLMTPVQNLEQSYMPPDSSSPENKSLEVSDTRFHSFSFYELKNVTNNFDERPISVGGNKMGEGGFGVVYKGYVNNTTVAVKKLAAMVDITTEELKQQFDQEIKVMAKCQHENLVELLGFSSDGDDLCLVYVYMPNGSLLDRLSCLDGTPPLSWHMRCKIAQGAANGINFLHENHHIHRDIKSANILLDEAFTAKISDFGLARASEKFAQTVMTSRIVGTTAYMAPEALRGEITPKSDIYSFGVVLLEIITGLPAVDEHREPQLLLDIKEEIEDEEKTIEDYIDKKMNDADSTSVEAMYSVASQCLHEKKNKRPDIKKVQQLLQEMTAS
Procedure, shortened: as §1

[4] = target: T3, Pim-2 (h) (Homo sapiens, UniProt Q9P1W9)
T3 construct: purchased Millipore
T3 sequence (Q9P1W9 whole entry): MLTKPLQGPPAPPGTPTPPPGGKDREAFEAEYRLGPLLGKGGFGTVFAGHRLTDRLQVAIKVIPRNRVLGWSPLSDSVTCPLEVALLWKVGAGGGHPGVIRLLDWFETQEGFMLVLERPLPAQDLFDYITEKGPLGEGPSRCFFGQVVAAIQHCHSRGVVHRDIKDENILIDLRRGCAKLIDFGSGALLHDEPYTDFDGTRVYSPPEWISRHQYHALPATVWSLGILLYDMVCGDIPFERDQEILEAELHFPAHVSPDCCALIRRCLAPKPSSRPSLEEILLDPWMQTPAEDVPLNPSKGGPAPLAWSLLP
Procedure, shortened: as §1

[5] = target: T4, ASK1 (h) (Homo sapiens, UniProt Q99683)
T4 sequence (Q99683 1-1374): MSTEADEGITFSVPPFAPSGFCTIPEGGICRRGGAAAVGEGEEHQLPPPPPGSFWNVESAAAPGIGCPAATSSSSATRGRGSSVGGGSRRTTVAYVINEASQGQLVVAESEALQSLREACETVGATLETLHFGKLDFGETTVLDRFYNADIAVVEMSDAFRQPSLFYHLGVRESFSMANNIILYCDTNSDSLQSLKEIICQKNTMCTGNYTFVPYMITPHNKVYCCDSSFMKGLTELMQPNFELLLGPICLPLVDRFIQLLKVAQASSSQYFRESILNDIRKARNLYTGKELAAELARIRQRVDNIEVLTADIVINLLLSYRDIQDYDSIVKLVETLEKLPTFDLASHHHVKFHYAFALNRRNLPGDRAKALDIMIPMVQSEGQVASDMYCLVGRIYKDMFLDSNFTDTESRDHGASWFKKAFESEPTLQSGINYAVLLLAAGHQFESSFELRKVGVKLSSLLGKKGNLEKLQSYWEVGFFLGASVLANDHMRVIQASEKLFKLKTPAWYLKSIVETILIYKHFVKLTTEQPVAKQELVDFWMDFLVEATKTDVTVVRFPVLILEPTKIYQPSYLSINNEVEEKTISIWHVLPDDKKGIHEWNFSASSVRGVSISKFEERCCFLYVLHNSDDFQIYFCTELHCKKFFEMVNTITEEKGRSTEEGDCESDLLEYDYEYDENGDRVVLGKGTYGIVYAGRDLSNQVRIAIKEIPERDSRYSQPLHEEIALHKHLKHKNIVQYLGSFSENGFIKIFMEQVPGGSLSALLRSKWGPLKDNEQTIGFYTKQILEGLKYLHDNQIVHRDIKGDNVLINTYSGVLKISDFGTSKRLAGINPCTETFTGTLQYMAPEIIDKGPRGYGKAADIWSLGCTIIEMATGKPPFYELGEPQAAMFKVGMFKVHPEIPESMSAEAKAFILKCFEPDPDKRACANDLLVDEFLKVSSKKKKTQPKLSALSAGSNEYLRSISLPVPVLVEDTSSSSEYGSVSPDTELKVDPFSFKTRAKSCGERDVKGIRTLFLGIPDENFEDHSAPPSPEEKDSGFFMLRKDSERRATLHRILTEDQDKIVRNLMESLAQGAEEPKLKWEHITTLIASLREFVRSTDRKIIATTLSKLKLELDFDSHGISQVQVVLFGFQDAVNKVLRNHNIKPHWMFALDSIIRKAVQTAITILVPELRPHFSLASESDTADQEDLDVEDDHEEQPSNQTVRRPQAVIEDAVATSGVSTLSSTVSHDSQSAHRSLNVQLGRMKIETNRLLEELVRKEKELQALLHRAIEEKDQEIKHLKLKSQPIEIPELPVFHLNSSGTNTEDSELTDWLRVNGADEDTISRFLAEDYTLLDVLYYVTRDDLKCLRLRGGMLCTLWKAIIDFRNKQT
Procedure, shortened: as §1

[6] = target: T5, CHK2(R145W) (h) (Homo sapiens, UniProt O96017, R145W)
T5 construct: purchased Millipore
T5 sequence (O96017 whole entry R145W): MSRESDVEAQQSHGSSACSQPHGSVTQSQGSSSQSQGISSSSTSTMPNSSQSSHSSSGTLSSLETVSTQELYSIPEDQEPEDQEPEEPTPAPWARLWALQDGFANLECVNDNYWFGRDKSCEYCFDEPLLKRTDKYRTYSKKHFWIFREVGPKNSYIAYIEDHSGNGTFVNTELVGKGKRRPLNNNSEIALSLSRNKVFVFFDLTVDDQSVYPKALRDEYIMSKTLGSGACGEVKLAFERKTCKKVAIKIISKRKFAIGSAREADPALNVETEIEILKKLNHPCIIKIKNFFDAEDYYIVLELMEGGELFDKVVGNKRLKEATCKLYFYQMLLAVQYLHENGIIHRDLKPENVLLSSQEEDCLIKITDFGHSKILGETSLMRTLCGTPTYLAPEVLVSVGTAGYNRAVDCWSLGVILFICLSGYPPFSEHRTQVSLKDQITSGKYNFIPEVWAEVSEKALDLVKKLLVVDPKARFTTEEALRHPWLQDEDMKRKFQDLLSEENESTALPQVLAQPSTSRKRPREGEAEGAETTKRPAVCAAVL
Procedure, shortened: as §1

Rsk1 (h), sequence (Q15418 whole entry): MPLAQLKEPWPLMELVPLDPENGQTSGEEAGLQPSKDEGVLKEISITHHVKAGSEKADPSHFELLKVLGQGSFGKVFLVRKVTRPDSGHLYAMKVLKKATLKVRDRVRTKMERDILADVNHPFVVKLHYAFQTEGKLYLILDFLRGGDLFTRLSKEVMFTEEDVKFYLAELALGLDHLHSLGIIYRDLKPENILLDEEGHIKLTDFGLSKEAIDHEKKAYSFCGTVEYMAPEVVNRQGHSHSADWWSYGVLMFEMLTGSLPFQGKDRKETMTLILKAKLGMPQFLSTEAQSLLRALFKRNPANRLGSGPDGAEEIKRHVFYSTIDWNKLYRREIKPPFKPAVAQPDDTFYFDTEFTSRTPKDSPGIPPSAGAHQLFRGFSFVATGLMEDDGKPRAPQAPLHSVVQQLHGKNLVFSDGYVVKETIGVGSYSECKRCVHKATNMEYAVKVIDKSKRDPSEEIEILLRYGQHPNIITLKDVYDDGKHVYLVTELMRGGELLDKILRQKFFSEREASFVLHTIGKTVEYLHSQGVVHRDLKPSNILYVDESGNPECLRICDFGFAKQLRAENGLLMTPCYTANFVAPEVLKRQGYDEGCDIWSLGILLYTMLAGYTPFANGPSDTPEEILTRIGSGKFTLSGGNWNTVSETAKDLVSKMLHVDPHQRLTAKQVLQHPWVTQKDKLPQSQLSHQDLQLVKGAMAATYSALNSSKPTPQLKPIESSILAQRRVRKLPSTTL

Sequence	% activity [1]	% activity [2]	% activity [3]	% activity [4]	% activity [5]	% activity [6]
FAKLAARLYRKALARQLGVAA [MMI-0300]	46%	78%	59%	76%	80%	33%
HRRIKAWLKKIKALARQLGVAA (Mammalian) [MMI-0500]	34%	0%	3%	46%	−4%	3%
KAFAKLAARLYRKALARQLGVAA [MMI-0400]	54%	61%	59%	92%	69%	31%
YARAAARQARAKALNRQLGVA (Mammalian) [MMI-0200]		97%	110%	74%	101%	81%
